Data: paper PMC8177707
Like-named read-outs stand apart in the source and are kept apart here.

Experiments:
Experiment in all cases: cryo-EM structure
[1] = target: full-length wild-type calcium-sensing receptor from Gallus gallus (ggCaSR) (Gallus gallus)
[2] = target: full-length wild-type calcium-sensing receptor from Gallus gallus (ggCaSR) (Gallus gallus); remark: listed apart in the source
[3] = target: full-length wild-type calcium-sensing receptor from Gallus gallus (ggCaSR) (Gallus gallus); remark: listed apart in the source
[4] = target: full-length wild-type calcium-sensing receptor from Gallus gallus (ggCaSR) (Gallus gallus); remark: listed apart in the source

Measured: stoichiometry N

full-length wild-type calcium-sensing receptor from Gallus gallus (ggCaSR)
2: all assays above
